Source: patent US20110318339A1

Experiments:
[1] = biological target: rHuman CD44/Fc Chimera, CF (Cat# 3660-CD) (human) (UniProt P16070); assay: Multispot ECL; Fab […]
[2] = biological target: rHuman EGF R/Fc Chimera, CF (Cat# 344-ER) (human) (UniProt P00533); assay: Multispot ECL; Fab […]
[3] = biological target: rHuman ErbB2/Fc Chimera, CF (Cat# 1129-ER) (human) (UniProt P04626); assay: Multispot ECL; Fab […]
[4] = biological target: rHuman Erythropoietin R/Fc Chimera, CF (Cat# 963-ER) (human) (UniProt P19235); assay: Multispot ECL; Fab […]
Chain of rHuman Erythropoietin R/Fc Chimera, CF (Cat# 963-ER) (human) (P19235 25-250, change not shown): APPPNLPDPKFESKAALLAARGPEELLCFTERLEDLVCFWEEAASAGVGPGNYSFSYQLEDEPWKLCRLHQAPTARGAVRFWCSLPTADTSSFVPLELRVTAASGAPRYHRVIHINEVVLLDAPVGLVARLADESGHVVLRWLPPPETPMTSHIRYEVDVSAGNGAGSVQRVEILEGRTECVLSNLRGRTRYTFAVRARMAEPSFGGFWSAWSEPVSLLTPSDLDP

[5] = biological target: rHuman HGF R/c-MET/Fc Chimera, CF (Cat# 358-MT/CF) (human) (UniProt P08581); assay: Multispot ECL; Fab […]
[6] = biological target: rHuman IGF-1 sR, (IGF-1 sR), CF (Cat# 391-GR) (human) (UniProt P08069); assay: Multispot ECL; Fab […]
[7] = biological target: rHuman Notch-1/Fc Chimera, CF (Cat# 3647-TK) (human) (UniProt P46531); assay: Multispot ECL; Fab […]
[8] = biological target: rHuman P-Cadherin/Fc Chimera, CF (Cat# 861-PC) (human) (UniProt P22223); assay: Multispot ECL; Fab […]
[9] = biological target: rHuman CD44/Fc Chimera, CF (Cat# 3660-CD) (human) (UniProt P16070); assay: Multispot ECL; Fab 170 nM
[10] = biological target: rHuman EGF R/Fc Chimera, CF (Cat# 344-ER) (human) (UniProt P00533); assay: Multispot ECL; Fab 170 nM
[11] = biological target: rHuman ErbB2/Fc Chimera, CF (Cat# 1129-ER) (human) (UniProt P04626); assay: Multispot ECL; Fab 170 nM
[12] = biological target: rHuman Erythropoietin R/Fc Chimera, CF (Cat# 963-ER) (human) (UniProt P19235); assay: Multispot ECL; Fab 170 nM
[13] = biological target: rHuman HGF R/c-MET/Fc Chimera, CF (Cat# 358-MT/CF) (human) (UniProt P08581); assay: Multispot ECL; Fab 170 nM
[14] = biological target: rHuman IGF-1 sR, (IGF-1 sR), CF (Cat# 391-GR) (human) (UniProt P08069); assay: Multispot ECL; Fab 170 nM
[15] = biological target: rHuman Notch-1/Fc Chimera, CF (Cat# 3647-TK) (human) (UniProt P46531); assay: Multispot ECL; Fab 170 nM
[16] = biological target: rHuman P-Cadherin/Fc Chimera, CF (Cat# 861-PC) (human) (UniProt P22223); assay: Multispot ECL; Fab 170 nM
[17] = biological target: rHuman CD44/Fc Chimera, CF (Cat# 3660-CD) (human) (UniProt P16070); assay: Multispot ECL; Fab 340 nM
[18] = biological target: rHuman EGF R/Fc Chimera, CF (Cat# 344-ER) (human) (UniProt P00533); assay: Multispot ECL; Fab 340 nM
[19] = biological target: rHuman ErbB2/Fc Chimera, CF (Cat# 1129-ER) (human) (UniProt P04626); assay: Multispot ECL; Fab 340 nM
[20] = biological target: rHuman Erythropoietin R/Fc Chimera, CF (Cat# 963-ER) (human) (UniProt P19235); assay: Multispot ECL; Fab 340 nM
[21] = biological target: rHuman HGF R/c-MET/Fc Chimera, CF (Cat# 358-MT/CF) (human) (UniProt P08581); assay: Multispot ECL; Fab 340 nM
[22] = biological target: rHuman IGF-1 sR, (IGF-1 sR), CF (Cat# 391-GR) (human) (UniProt P08069); assay: Multispot ECL; Fab 340 nM
[23] = biological target: rHuman Notch-1/Fc Chimera, CF (Cat# 3647-TK) (human) (UniProt P46531); assay: Multispot ECL; Fab 340 nM
[24] = biological target: rHuman P-Cadherin/Fc Chimera, CF (Cat# 861-PC) (human) (UniProt P22223); assay: Multispot ECL; Fab 340 nM
[25] = biological target: rHuman CD44/Fc Chimera, CF (Cat# 3660-CD) (human) (UniProt P16070); assay: Multispot ECL; Fab 85.0 nM
[26] = biological target: rHuman EGF R/Fc Chimera, CF (Cat# 344-ER) (human) (UniProt P00533); assay: Multispot ECL; Fab 85.0 nM
[27] = biological target: rHuman ErbB2/Fc Chimera, CF (Cat# 1129-ER) (human) (UniProt P04626); assay: Multispot ECL; Fab 85.0 nM
[28] = biological target: rHuman Erythropoietin R/Fc Chimera, CF (Cat# 963-ER) (human) (UniProt P19235); assay: Multispot ECL; Fab 85.0 nM
[29] = biological target: rHuman HGF R/c-MET/Fc Chimera, CF (Cat# 358-MT/CF) (human) (UniProt P08581); assay: Multispot ECL; Fab 85.0 nM
[30] = biological target: rHuman IGF-1 sR, (IGF-1 sR), CF (Cat# 391-GR) (human) (UniProt P08069); assay: Multispot ECL; Fab 85.0 nM
[31] = biological target: rHuman Notch-1/Fc Chimera, CF (Cat# 3647-TK) (human) (UniProt P46531); assay: Multispot ECL; Fab 85.0 nM
[32] = biological target: rHuman P-Cadherin/Fc Chimera, CF (Cat# 861-PC) (human) (UniProt P22223); assay: Multispot ECL; Fab 85.0 nM

Substance: Fab VH4-34_IGHD7-27*01_IGHJ4*01 & V4-6_IGLJ4*01
- ECL signal [1]: 522
- ECL signal [2]: 528
- ECL signal [3]: 866
- ECL signal [4]: 494
- ECL signal [5]: 607
- ECL signal [6]: 646
- ECL signal [7]: 649
- ECL signal [8]: 421
- ECL signal [9]: 660
- ECL signal [10]: 826
- ECL signal [11]: 964
- ECL signal [12]: 790
- ECL signal [13]: 757
- ECL signal [14]: 832
- ECL signal [15]: 816
- ECL signal [16]: 744
- ECL signal [17]: 959
- ECL signal [18]: 1210
- ECL signal [19]: 1230
- ECL signal [20]: 1260
- ECL signal [21]: 1240
- ECL signal [22]: 1040
- ECL signal [23]: 1210
- ECL signal [24]: 1160
- ECL signal [25]: 693
- ECL signal [26]: 1000
- ECL signal [27]: 844
- ECL signal [28]: 817
- ECL signal [29]: 998
- ECL signal [30]: 891
- ECL signal [31]: 780
- ECL signal [32]: 709
